US20100330095A1 (U3 PHARMA, published 2010)
Where a chain is given by its changes, count along the chain named. Each block holds one binder with its values, some of them ahead of it.

What was measured:
[1] = biological target: T1, human receptor tyrosine kinase AXL transcript variant 1 (human, UniProt P30530 26-894); assay: cell-based or functional assay
T1 sequence: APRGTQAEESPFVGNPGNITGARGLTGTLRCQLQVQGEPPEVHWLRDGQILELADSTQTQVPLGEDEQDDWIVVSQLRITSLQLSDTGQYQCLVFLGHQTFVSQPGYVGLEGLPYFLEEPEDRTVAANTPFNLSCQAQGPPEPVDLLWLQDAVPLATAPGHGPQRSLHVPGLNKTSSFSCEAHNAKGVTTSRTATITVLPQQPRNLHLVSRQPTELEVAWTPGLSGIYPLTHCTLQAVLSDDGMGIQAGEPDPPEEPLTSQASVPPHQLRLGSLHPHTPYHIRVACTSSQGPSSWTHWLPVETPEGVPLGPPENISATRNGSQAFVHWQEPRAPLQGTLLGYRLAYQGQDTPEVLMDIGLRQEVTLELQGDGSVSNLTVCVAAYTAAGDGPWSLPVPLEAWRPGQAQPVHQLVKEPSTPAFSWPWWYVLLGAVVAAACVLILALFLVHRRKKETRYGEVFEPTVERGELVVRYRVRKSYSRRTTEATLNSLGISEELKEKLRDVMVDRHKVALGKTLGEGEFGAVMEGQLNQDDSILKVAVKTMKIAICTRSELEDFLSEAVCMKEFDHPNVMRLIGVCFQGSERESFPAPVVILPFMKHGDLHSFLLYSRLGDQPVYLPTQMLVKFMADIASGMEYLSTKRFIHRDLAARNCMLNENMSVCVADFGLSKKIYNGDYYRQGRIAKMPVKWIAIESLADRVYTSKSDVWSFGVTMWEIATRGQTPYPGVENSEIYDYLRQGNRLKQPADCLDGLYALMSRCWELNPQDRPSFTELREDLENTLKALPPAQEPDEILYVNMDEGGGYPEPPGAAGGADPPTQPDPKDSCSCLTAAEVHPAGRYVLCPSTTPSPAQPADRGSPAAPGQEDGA

[2] = biological target: T1, human receptor tyrosine kinase AXL …; assay: flow cytometry, NIH3T3-hAXL cells
[3] = biological target: T1, human receptor tyrosine kinase AXL …; assay: FACS Scatchard (apparent KD) on human AXL overexpressing NIH3T3 cells
Protocol: Human AXL overexpression NIH3T3 cells were harvested by incubation with 10 mM EDTA in PBS and resuspended at 6 million cells per ml in FACS buffer (PBS pH 7.4, 3% FCS, 0.1% NaN₃). […] Antibody binding was allowed to proceed for 2 hours on ice. Then, cells were washed twice with 250 μl FACS buffer per well, and resuspended in 200 μl of secondary antibody (anti-rat-PE; Jackson) diluted 1:50 in FACS buffer. After 45 minutes of incubation, cells were again washed twice in FACS buffer and resuspended in […] PBS for FACS analysis. Analysis was carried out on a Beckman-Coulter FACS FC500. To determine the apparent affinity constant KDapp, mean fluorescence values were plotted against the ratio of mean fluorescence and the corresponding antibody concentration ([M]).

IC50 of VEGF-A-stimulated HUVEC spheroid sprouting [1]: 700 nM
FACS shift [2]: 8.9
Kd [3]: 0.81 nM
B1: III 11D5 (antibody, rat IgG2a, V domains shown)
VH: EVQLQESGPGLVKPSQSLSLTCSVTGYSITSNYWGWIRKFPGNKMEWIGHITNSGNTTYNPSLKSRISISRDTSRNQFFLQLNSVTTEDTATYYCAKGAFDYWGQGVMVTVSS
VL: DIQMTQSPSSMSTSLGDRVTITCRASQDIGNYLSWFQQKVGKSPRRMIYGAIKLAVGVPSRFSGSRSGSDYSLTISSLESEDMAIYYCLQYIQFPLTFGSGTKLELK
notes: rat hybridoma antibody, antagonistic

IC50 of VEGF-A-stimulated HUVEC spheroid sprouting [1]: 98 nM
FACS shift [2]: 36.2
Kd [3]: 0.38 nM
B2: I 11B7 (antibody, V domains shown)
VH: EVQLQESGPGLVKPSQSLSLTCSVTGYSITSNYWGWIRKFPGDKMEWMGYITYSGSTSYNPSLKSRISITRDTSKNQFFLQLNSVTSEDTATYYCAITTFYYWGQGVMVTVSS
VL: DIQMTQAPSSLPASLGDRVTITCRASQDIGNYLRWFQQKPGKSPRLMISGATNLAAGVPSRFSGSRSGSDYSLTISSLESEDMADYYCLQSKESPWTFGGGTKLELK
notes: as for B1

FACS shift [2]: 37.5
B3: I 10D12 (antibody, V domains shown)
VH: EVQLQESGPGLVKPSQSLSLTCSVTGYSITSNYWGWIRKFPGNKMEWMGYITNSGGTAYNPSLKSRISITRDTSKNQFFLQLNSVIPEDSATYFCSRTPWDWGQGVMVTVSS
VL: B2 VL with T22A, L73R
notes: rat hybridoma antibody, antagonistic; subclass G1
